Assay results reported in patent publication US20160137744A1 (ONCOMED PHARMACEUTICALS, published 2016).
Like-named read-outs stand apart in the source and are kept apart here. One block for each molecule: values may come before it.

What was measured:
[1] = target: full-length human MET (FL-MET) on cells (human) (UniProt P08581); assay: FACS competition, biotin-HGF on MET-transfected HEK-293T cells; antibody at 10 µg/ml
[2] = target: full-length human MET (FL-MET) on cells (human) (UniProt P08581); assay: FACS blocking assay: MET-transfected HEK-293T cells pre-incubated with the agent, then biotin-HGF (blocked ligand) + PE-streptavidin; % cells in gate P2
[3] = target: T1, human MET (soluble analyte in Biacore) (human, UniProt P08581 25-932); assay: SPR (Biacore 2000), antibody captured by anti-human antibody, human MET injected
T1 sequence (P08581 25-932 limits assumed): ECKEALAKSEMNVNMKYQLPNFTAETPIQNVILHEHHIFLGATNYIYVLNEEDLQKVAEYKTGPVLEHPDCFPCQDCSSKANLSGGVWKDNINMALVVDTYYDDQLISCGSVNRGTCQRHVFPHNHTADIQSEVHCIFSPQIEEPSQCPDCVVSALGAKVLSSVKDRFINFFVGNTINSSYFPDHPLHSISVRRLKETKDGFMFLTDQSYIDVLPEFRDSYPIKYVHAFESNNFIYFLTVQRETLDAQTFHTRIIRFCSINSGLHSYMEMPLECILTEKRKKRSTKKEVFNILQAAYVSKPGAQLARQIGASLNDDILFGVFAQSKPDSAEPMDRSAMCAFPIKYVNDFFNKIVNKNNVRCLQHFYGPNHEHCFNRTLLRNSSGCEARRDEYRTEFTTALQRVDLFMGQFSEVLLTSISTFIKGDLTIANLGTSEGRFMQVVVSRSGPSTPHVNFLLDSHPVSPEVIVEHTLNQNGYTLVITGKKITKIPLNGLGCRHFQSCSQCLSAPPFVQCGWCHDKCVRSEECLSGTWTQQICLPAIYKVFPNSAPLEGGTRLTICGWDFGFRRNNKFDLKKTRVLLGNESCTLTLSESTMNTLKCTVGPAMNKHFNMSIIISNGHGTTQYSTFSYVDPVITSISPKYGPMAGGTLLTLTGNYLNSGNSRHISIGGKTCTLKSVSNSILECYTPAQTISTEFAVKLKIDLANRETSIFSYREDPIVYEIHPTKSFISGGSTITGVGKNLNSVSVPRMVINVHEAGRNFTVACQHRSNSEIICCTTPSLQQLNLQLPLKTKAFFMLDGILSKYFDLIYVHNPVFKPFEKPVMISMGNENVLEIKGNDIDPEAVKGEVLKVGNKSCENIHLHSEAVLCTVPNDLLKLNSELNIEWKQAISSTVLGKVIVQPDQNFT
Procedure: (§1) The KD of monovalent version of 73R009, monovalent anti-MET antibody 5D5, and anti-MET/FZD8-Fc bispecific agent 315B6 were determined using a Biacore 2000 system from Biacore LifeSciences (GE Healthcare). A goat anti-human antibody (Invitrogen H10500) was coupled to a carboxymethyl-dextran (CM5) SPR chip using standard amine-based chemistry (NHS/EDC) and blocked with ethanolamine. Antibodies were diluted to a concentration of 10 μg/ml in HBS-P-BSA (0.01M HEPES pH7.4, 0.15M NaCl, 0.005% v/v Polysorbate 20, 10 μg/ml BSA) and captured onto the chip via the anti-human antibody. Human MET was serially diluted 2-fold from 300 nM to 37.5 nM in HBS-P-BSA and injected sequentially over the captured anti-MET antibodies. MET association and dissociation was measured at each concentration. After each antigen injection 5 μl of 100 mM H₃PO₄ was injected to remove the antigen-antibody complex and a subsequent injection performed. Kinetic data were collected over time and were fit using the simultaneous global fit equation to yield affinity constants (KD values) for each agent.
(§2) In addition, the bispecific agent 315B6 appeared to have stronger affinity for human MET than anti-MET antibody 5D5.

[4] = target: full-length human MET (FL-MET) on cells (human) (UniProt P08581); assay: FACS competition, biotin-HGF on MET-transfected HEK-293T cells; antibody at 0.16 µg/ml
[5] = target: full-length human MET (FL-MET) on cells (human) (UniProt P08581); assay: FACS blocking assay: MET-transfected HEK-293T cells pre-incubated with the agent, then biotin-HGF (blocked ligand) + PE-streptavidin; inhibition versus the average of the two positive controls
[6] = target: full-length human MET (FL-MET) on cells (human) (UniProt P08581); assay: as above; remark: listed apart in the source
[7] = target: full-length human MET (FL-MET) on cells (human) (UniProt P08581); assay: FACS blocking assay: MET-transfected HEK-293T cells pre-incubated with the agent, then biotin-HGF (blocked ligand) + PE-streptavidin; % cells in gate P2; remark: listed apart in the source
[8] = target: T1, human MET (soluble analyte in Biacore); assay: SPR (Biacore 2000), agent captured by anti-human antibody, human MET injected
Procedure: as §1, §2

Chain of full-length human MET (FL-MET) on cells (human) (P08581 25-1390 limits assumed): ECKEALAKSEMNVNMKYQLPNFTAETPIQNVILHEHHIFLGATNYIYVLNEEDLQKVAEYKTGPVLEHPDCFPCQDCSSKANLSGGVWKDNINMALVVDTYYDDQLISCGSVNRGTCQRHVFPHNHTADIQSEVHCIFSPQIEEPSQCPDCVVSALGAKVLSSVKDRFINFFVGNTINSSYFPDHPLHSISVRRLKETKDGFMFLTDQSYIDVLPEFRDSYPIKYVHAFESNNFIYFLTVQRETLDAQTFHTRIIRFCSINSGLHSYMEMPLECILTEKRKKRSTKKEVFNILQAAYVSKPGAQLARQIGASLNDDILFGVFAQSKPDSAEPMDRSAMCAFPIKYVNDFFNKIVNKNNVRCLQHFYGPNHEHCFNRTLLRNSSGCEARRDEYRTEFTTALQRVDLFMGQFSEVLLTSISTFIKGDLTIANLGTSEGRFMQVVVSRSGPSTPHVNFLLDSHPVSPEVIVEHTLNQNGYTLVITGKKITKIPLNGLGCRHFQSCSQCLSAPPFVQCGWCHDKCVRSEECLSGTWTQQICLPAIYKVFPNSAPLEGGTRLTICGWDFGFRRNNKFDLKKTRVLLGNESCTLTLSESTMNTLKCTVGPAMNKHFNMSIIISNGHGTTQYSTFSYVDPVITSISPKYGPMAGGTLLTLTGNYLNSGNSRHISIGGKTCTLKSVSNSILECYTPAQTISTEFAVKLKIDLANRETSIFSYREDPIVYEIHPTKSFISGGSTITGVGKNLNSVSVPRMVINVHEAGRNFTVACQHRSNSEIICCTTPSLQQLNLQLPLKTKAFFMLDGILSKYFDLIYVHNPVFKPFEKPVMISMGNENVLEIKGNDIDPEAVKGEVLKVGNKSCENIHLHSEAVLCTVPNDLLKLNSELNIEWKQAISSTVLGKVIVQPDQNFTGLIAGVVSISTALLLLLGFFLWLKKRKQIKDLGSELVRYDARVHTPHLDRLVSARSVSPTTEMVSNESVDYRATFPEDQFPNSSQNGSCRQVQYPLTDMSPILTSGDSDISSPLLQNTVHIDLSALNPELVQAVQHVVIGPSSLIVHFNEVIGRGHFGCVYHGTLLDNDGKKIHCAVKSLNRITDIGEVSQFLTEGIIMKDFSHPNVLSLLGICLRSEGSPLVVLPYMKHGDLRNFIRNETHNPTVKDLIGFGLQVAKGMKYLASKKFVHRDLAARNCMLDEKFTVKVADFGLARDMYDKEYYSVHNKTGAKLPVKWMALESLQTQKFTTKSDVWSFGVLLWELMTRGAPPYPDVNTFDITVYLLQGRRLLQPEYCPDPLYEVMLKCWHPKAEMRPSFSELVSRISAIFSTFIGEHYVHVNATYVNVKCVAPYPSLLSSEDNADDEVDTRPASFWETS

percent reduction of HGF binding to MET [1]: 70%
% Binding of HGF at 0.16 ug/ml agent [2]: 14.3%
% Binding of HGF at 0.3 ug/ml agent [2]: 10.6%
% Binding of HGF at 0.625 ug/ml agent [2]: 12%
% Binding of HGF at 1.25 ug/ml agent [2]: 8.54%
% Binding of HGF at 2.5 ug/ml agent [2]: 9.61%
% Binding of HGF at 5 ug/ml agent [2]: 6.67%
% Binding of HGF at 10 ug/ml agent [2]: 6.31%
Kd [3]: 7.2 nM
percent reduction of HGF binding to MET [4]: 28%
% Inhibition of HGF binding at 0.3 ug/ml agent [5]: 47%
% Inhibition of HGF binding at 0.625 ug/ml agent [5]: 40%
% Inhibition of HGF binding at 1.25 ug/ml agent [5]: 57%
% Inhibition of HGF binding at 2.5 ug/ml agent [5]: 52%
% Inhibition of HGF binding at 5 ug/ml agent [5]: 67%
Molecule: monovalent anti-MET antibody 5D5

% Inhibition of HGF binding at 0.3 ug/ml agent [6]: 52%
% Inhibition of HGF binding at 0.625 ug/ml agent [6]: 60%
% Inhibition of HGF binding at 1.25 ug/ml agent [6]: 62%
% Inhibition of HGF binding at 2.5 ug/ml agent [6]: 63%
% Inhibition of HGF binding at 5 ug/ml agent [6]: 61%
percent reduction of HGF binding to MET [1]: 72%
Kd [3]: 1.4 nM
% Binding of HGF at 0.16 ug/ml agent [7]: 8.72%
% Binding of HGF at 0.3 ug/ml agent [7]: 9.71%
% Binding of HGF at 0.625 ug/ml agent [7]: 8.03%
% Binding of HGF at 1.25 ug/ml agent [7]: 7.7%
% Binding of HGF at 2.5 ug/ml agent [7]: 7.44%
% Binding of HGF at 5 ug/ml agent [7]: 7.77%
% Binding of HGF at 10 ug/ml agent [7]: 5.51%
percent reduction of HGF binding to MET [4]: 56%
B1: monovalent version of anti-MET antibody 73R009 (antibody, part only; not given: monovalent constant regions and partner arm, V domains shown, not shown: another chain or arm of the molecule; a dimerising Fc or GST)
VH: QVQLQESGPGLVKPSETLSLTCTVTGTTITASYAWSWIRQPPGKGLEWMGYISYSGGTDYNPSLKSRITISRDTFKNQFSLKLSSVTAADTATYYCARKGAYWGQGTLVTVSS
VL: DIVLTQSPATLSASPGEKVTLTCSASSSVSSSYLYWYQQKPGQAPKLLIYSTSNLASGVPARFSGSGSGTSYSLTISSLEPEDFATYYCHQWSSYPYTFGGGTKLEIK

Kd [3]: 1.1 nM
B2: antibody 73R009 (bivalent "parental" antibody) (antibody, human IgG2, kappa, V domains shown)
VH: B1 VH
VL: DIVLTQSPATLSASPGEKVTLTCSASSSVSSSYLYWYQQKPGQAPKLLIYSTSNLASGVPARFSGSGSGTSYSLTISSLEPEDFATYYCHQWSSYPYTFGGGTKLEIKR
notes: Humanized, bivalent; also called humanized anti-MET monoclonal antibody

Kd [8]: 1.8 nM
B3: anti-MET/FZD8-Fc bispecific agent 315B6 (bispecific antibody, human IgG2, kappa)
heavy: QVQLQESGPGLVKPSETLSLTCTVTGTTITASYAWSWIRQPPGKGLEWMGYISYSGGTDYNPSLKSRITISRDTFKNQFSLKLSSVTAADTATYYCARKGAYWGQGTLVTVSSASTKGPSVFPLAPCSRSTSESTAALGCLVKDYFPEPVTVSWNSGALTSGVHTFPAVLQSSGLYSLSSVVTVPSSNFGTQTYTCNVDHKPSNTKVDKTVERKCCVECPPCPAPPVAGPSVFLFPPKPKDTLMISRTPEVTCVVVDVSHEDPEVQFNWYVDGVEVHNAKTKPREEQFNSTFRVVSVLTVVHQDWLNGKEYKCKVSNKGLPAPIEKTISKTKGQPREPQVYTLPPSREKMTKNQVSLTCLVKGFYPSDIAVEWESNGQPENNYKTTPPMLKSDGSFFLYSKLTVDKSRWQQGNVFSCSVMHEALHNHYTQKSLSLSPGK
light: DIVLTQSPATLSASPGEKVTLTCSASSSVSSSYLYWYQQKPGQAPKLLIYSTSNLASGVPARFSGSGSGTSYSLTISSLEPEDFATYYCHQWSSYPYTFGGGTKLEIKRTVAAPSVFIFPPSDEQLKSGTASVVCLLNNFYPREAKVQWKVDNALQSGNSQESVTEQDSKDSTYSLSSTLTLSKADYEKHKVYACEVTHQGLSSPVTKSFNRGEC
chain: ASAKELACQEITVPLCKGIGYNYTYMPNQFNHDTQDEAGLEVHQFWPLVEIQCSPDLKFFLCSMYTPICLEDYKKPLPPCRSVCERAKAGCAPLMRQYGFAWPDRMRCDRLPEQGNPDTLCMDYNRTDLTTTKVDKTVERKSCVECPPCPAPPVAGPSVFLFPPKPKDTLMISRTPEVTCVVVDVSHEDPEVQFNWYVDGVEVHNAKTKPREEQFNSTFRVVSVLTVVHQDWLNGKEYKCKVSNKGLPAPIEKTISKTKGQPREPQVYTLPPSREEMTKNQVSLTCLVEGFYPSDIAVEWESNGQPENNYKTTPPMLDSDGSFFLYSELTVDKSRWQQGNVFSCSVMHEALHNHYTQKSLSLSPGK
notes: Heterodimer of a monovalent 73R009 arm (heavy + light) and a FZD8 Fri-Fc fusion arm; plasmids ATCC PTA-13609, PTA-13610, PTA-13611; also called bispecific anti-MET/FZD8-Fc agent
